Target: T1, λ2^315 Ig L-chain (idiotype, Id) peptide on I-E^d (mouse)
T1 peptide: ALWFRNHFVFG
Test: activation reporter or marker

B1: 4B2A1 TCR (TCR, V domains shown)
Valpha: QQKVQQSPESLIVPEGAMTSLNCTFSDSASQYFAWYRQQSGKAPKALMSIFSNGEKEEGRFTIHLNKASLHFSLHIRDSQPSDSALYLCAVRGPNTGNYKYVFGAGTRLKVIA
Vbeta: EAAVTQSPRNKVAVTGGKVTLSCNQTNNHNNMYWYRQDTGHGLRLIHYSYGAGSTEKGDIPDGYKASRPSQENFSLILELATPSQTSVYFCASGDAGQGHSDYTFGSGTRLLVI
binding result: recognises

Source: patent US20110126299A1 (published 2011)
